Test results from US20100210517A1 (RAPTOR PHARMACEUTICAL, published 2010).

T1: MAT CR12 (human, UniProt Q9Y5Y6 452-524)
T1 construct: also called ST14 CR12; matriptase CR12
T1 sequence: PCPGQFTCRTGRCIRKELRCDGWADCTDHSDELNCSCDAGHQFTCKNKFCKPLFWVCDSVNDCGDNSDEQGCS

B1: MatRAP1 N-42 without the C-terminal linker and affinity tag (ligand)
chain: FREELKHFGAKIERHNHYQKQLEIAHEWLRHAESVGDGERVSRSREKHALLEGRTKELGYTVKKHLQDLSGRISRAR
notes: Range derived; not shown: N-terminal hexahistidine and S-peptide tags of pET30(+)a
B2: MatRAP1 truncated by 10 amino acids at the N-terminus (ligand)
chain: GYSTEAEFEEPRVIDLWDLAQSANLTDKELEAFREELKHFGAKIERHNHYQKQLEIAHEWLRHAESVGDGERVSRSREKHALLEGRTKELGYTVKKHLQDLSGRISRAR
notes: Range derived: d3 starts at 201 and 10 residues were removed; also called MatRAP1 N-10; not shown: N-terminal hexahistidine and S-peptide tags of pET30(+)a
B3: MatRAP1 truncated by 31 amino acids at the N-terminus (ligand)
chain: SANLTDKELEAFREELKHFGAKIERHNHYQKQLEIAHEWLRHAESVGDGERVSRSREKHALLEGRTKELGYTVKKHLQDLSGRISRAR
notes: Range derived from the number of residues removed; also called MatRAP1 N-31; not shown: N-terminal hexahistidine and S-peptide tags of pET30(+)a
B4: MatRAP1 truncated by 52 amino acids at the N-terminus (ligand)
chain: KIERHNHYQKQLEIAHEWLRHAESVGDGERVSRSREKHALLEGRTKELGYTVKKHLQDLSGRISRAR
notes: Range derived from the number of residues removed (52 total); also called MatRAP1 N-52; not shown: N-terminal hexahistidine and S-peptide tags of pET30(+)a
B5: MatRAP1 truncated variant, amino acids 243-313 (71 amino acids) (ligand)
chain: FREELKHFGAKIERHNHYQKQLEIAHEWLRHAESVGDGERVSRSREKHALLEGRTKELGYTVKKHLQDLSG
notes: also called best truncated variant; not shown: N-terminal hexahistidine and S-peptide tags of pET30(+)a
B6: MegaRAP1 d3 double revertant A256K, E270K (ligand)
chain: LDRLRRVSHQGYTTEAKFEEPRVIDLWDLAQSANLTDKELEAFREELKYFKAKIEKHNHYQKQLEIAHEKLRHAESVGDGERVSRSREKHALLEGRTKELGYTVKKHLQDLSGRISRAR
notes: not shown: N-terminal hexahistidine and S-peptide tags of pET30(+)a
B7: RAP d3 forward mutant E251K, K270E (ligand)
chain: LDRLRRVSHQGYSTEAEFEEPRVIDLWDLAQSANLTDKELEAFREELKHFKAKIEKHNHYQKQLEIAHEELRHAESVGDGERVSRSREKHALLEGRTKELGYTVKKHLQDLSGRISRAR
notes: also called K270E in combination with E251K; not shown: N-terminal hexahistidine and S-peptide tags of pET30(+)a
B8: RAP d3 forward mutant E251K, K256A, K270E (ligand)
chain: LDRLRRVSHQGYSTEAEFEEPRVIDLWDLAQSANLTDKELEAFREELKHFKAKIEAHNHYQKQLEIAHEELRHAESVGDGERVSRSREKHALLEGRTKELGYTVKKHLQDLSGRISRAR
notes: also called triple mutant; not shown: N-terminal hexahistidine and S-peptide tags of pET30(+)a
B9: MegaRAP1 d3 revertant A256K (ligand)
chain: LDRLRRVSHQGYTTEAKFEEPRVIDLWDLAQSANLTDKELEAFREELKYFKAKIEKHNHYQKQLEIAHEELRHAESVGDGERVSRSREKHALLEGRTKELGYTVKKHLQDLSGRISRAR
notes: as for B6
B10: MegaRAP1 d3 revertant Y249H (ligand)
chain: LDRLRRVSHQGYTTEAKFEEPRVIDLWDLAQSANLTDKELEAFREELKHFKAKIEAHNHYQKQLEIAHEELRHAESVGDGERVSRSREKHALLEGRTKELGYTVKKHLQDLSGRISRAR
notes: MegaRAP1 d3 with position 249 reverted to wild type; not shown: N-terminal hexahistidine and S-peptide tags of pET30(+)a
B11: RAP d3 forward mutant K256A, K270E (ligand)
chain: LDRLRRVSHQGYSTEAEFEEPRVIDLWDLAQSANLTDKELEAFREELKHFEAKIEAHNHYQKQLEIAHEELRHAESVGDGERVSRSREKHALLEGRTKELGYTVKKHLQDLSGRISRAR
notes: also called K270E in combination with K256A; not shown: N-terminal hexahistidine and S-peptide tags of pET30(+)a
B12: MegaRAP1 d3 revertant T213S (ligand)
chain: LDRLRRVSHQGYSTEAKFEEPRVIDLWDLAQSANLTDKELEAFREELKYFKAKIEAHNHYQKQLEIAHEELRHAESVGDGERVSRSREKHALLEGRTKELGYTVKKHLQDLSGRISRAR
notes: MegaRAP1 d3 with position 213 reverted to wild type; not shown: N-terminal hexahistidine and S-peptide tags of pET30(+)a
B13: MegaRAP1 d3 double revertant K251E, E270K (ligand)
chain: LDRLRRVSHQGYTTEAKFEEPRVIDLWDLAQSANLTDKELEAFREELKYFEAKIEAHNHYQKQLEIAHEKLRHAESVGDGERVSRSREKHALLEGRTKELGYTVKKHLQDLSGRISRAR
notes: as for B6
B14: RAP d3 forward mutant E251K (ligand)
chain: LDRLRRVSHQGYSTEAEFEEPRVIDLWDLAQSANLTDKELEAFREELKHFKAKIEKHNHYQKQLEIAHEKLRHAESVGDGERVSRSREKHALLEGRTKELGYTVKKHLQDLSGRISRAR
notes: The paragraph gives only the position; the change E251K follows from the mutagenic primers; not shown: N-terminal hexahistidine and S-peptide tags of pET30(+)a
B15: RAP d3 forward mutant E217K (ligand)
chain: LDRLRRVSHQGYSTEAKFEEPRVIDLWDLAQSANLTDKELEAFREELKHFEAKIEKHNHYQKQLEIAHEKLRHAESVGDGERVSRSREKHALLEGRTKELGYTVKKHLQDLSGRISRAR
notes: The paragraph gives only the position; the change E217K follows from the mutagenic primers and the MegaRAP1 mutation set; also called single-site RAP d3 mutant at 217; not shown: N-terminal hexahistidine and S-peptide tags of pET30(+)a
B16: MegaRAP1 d3 revertant E270K (ligand)
chain: LDRLRRVSHQGYTTEAKFEEPRVIDLWDLAQSANLTDKELEAFREELKYFKAKIEAHNHYQKQLEIAHEKLRHAESVGDGERVSRSREKHALLEGRTKELGYTVKKHLQDLSGRISRAR
notes: MegaRAP1 d3 with position 270 reverted to wild type; also called MegaRAP1 d3 E270K; E270K revertant; not shown: N-terminal hexahistidine and S-peptide tags of pET30(+)a
B17: RAP d3 forward mutant H249Y (ligand)
chain: LDRLRRVSHQGYSTEAEFEEPRVIDLWDLAQSANLTDKELEAFREELKYFEAKIEKHNHYQKQLEIAHEKLRHAESVGDGERVSRSREKHALLEGRTKELGYTVKKHLQDLSGRISRAR
notes: The paragraph gives only the position; the change H249Y follows from the mutagenic primers; also called single-site RAP d3 mutant at 249; not shown: N-terminal hexahistidine and S-peptide tags of pET30(+)a
B18: RAP d3 forward mutant K270E (ligand)
chain: LDRLRRVSHQGYSTEAEFEEPRVIDLWDLAQSANLTDKELEAFREELKHFEAKIEKHNHYQKQLEIAHEELRHAESVGDGERVSRSREKHALLEGRTKELGYTVKKHLQDLSGRISRAR
notes: also called K270E alone; not shown: N-terminal hexahistidine and S-peptide tags of pET30(+)a
B19: MegaRAP1 d3 revertant K251E (ligand)
chain: LDRLRRVSHQGYTTEAKFEEPRVIDLWDLAQSANLTDKELEAFREELKYFEAKIEAHNHYQKQLEIAHEELRHAESVGDGERVSRSREKHALLEGRTKELGYTVKKHLQDLSGRISRAR
notes: as for B6
B20: MegaRAP1 d3 revertant K217E (ligand)
chain: LDRLRRVSHQGYTTEAEFEEPRVIDLWDLAQSANLTDKELEAFREELKYFKAKIEAHNHYQKQLEIAHEELRHAESVGDGERVSRSREKHALLEGRTKELGYTVKKHLQDLSGRISRAR
notes: MegaRAP1 d3 with position 217 reverted to wild type; not shown: N-terminal hexahistidine and S-peptide tags of pET30(+)a

Columns and labels:
MAT CR23 = biological target: T2, MAT CR23 (human); test: solid-phase binding assay; target not given, MAT CR23 is the pair MatRAP1 was selected on
T2 construct: range 487-566; also called ST14 CR23; matriptase CR23
T2 sequence (Q9Y5Y6 487-566): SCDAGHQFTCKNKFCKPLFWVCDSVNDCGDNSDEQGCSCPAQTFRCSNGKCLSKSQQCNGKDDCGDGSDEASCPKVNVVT
Method: (§1) Solid phase binding assays-Purified, refolded CR protein (1 μg) was bound to Nunc Maxisorp™ 96-well plates in TBS pH 8 supplemented with 5 mM CaCl₂ (TBSC) overnight at 4° C. Wells were washed with TBSC and then blocked with TBSC containing 2% bovine serum albumin (BSA). […] Control wells contained no added ligand. As an additional control, to determine whether the absence of calcium affected binding, 10 mM EGTA was included in the incubation medium for some samples. […] Excess primary antibody was removed and wells washed before incubation with the secondary antibody, HRP-conjugated goat anti rabbit IgG (Bio-Rad). After washing, TMB substrate solutions (Bio-Rad) were added to detect HRP. Color development was stopped with 1N HCl. Absorption at 450 nm was measured with a microplate spectrophotometer (Molecular Devices). Data were plotted and Kd values derived by non-linear regression with the assumption of single-site binding (GraphPad Prism).

MAT CR12 = biological target: T1, MAT CR12; test: binding of truncated MatRAP1 forms to MAT CR12, relative signal under isomolar conditions
Method: as §1

LRP1 CR3-5 [1] = biological target: T3, LRP1 CR3-5 (human); test: solid-phase assay; OD at the highest ligand concentration as percent of the highest OD of all ligands
T3 construct: range 852-973; also called L1 CR3-5
T3 sequence (Q07954 852-973): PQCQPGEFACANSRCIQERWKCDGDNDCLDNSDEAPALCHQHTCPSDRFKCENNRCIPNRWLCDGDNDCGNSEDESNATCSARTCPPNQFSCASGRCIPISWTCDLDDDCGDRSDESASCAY
Method: as §1

LRP2 CR89 [2] = biological target: T4, LRP2 CR89 (human, UniProt P98164 1025-1102); test: as above
T4 construct: domain: CR89; also called YVWR; L2 CR89; not shown: N-terminal hexahistidine and S-peptide tags of pET30(+)a
T4 sequence (P98164 1025-1102): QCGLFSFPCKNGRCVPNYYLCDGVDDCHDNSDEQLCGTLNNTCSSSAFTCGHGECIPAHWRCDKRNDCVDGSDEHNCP
Method: as §1

LRP1 CR3-5 [3] = biological target: T3, LRP1 CR3-5; test: solid-phase binding assay, CR protein coated on plate, anti-RAP detection
LRP2 CR89 [4] = biological target: T4, LRP2 CR89; test: as above
LRP1 CR3-5 [5] = biological target: T3, LRP1 CR3-5; test: solid-phase assay on coated CR protein, single-site non-linear fit
Method: (§2) Data were plotted and fitted by non-linear regression with the assumption of a single binding site (GraphPad Prism). Kd values with standard deviations were derived from the regression analysis.
as §1

LRP2 CR89 [6] = biological target: T4, LRP2 CR89; test: as above
Method: as §2, §1

LRP2 CR89 [7] = biological target: T4, LRP2 CR89; test: solid-phase assay on coated CR protein, anti-RAP detection, A450
Method: as §2, §1

Binder	% max (LRP1 CR3-5 [1]) [%]	% max (LRP2 CR89 [2]) [%]	Kd (LRP2 CR89 [6]) [nM]	binding result (LRP2 CR89 [7])	also measured
B1	–	–	–	–	fold increase in affinity over MatRAP1 N-42 (MAT CR23): 2 fold
B2	–	–	–	–	fnctn (relative binding signal under isomolar conditions) (MAT CR12): 0.1
B3	–	–	–	–	fnctn (relative binding signal under isomolar conditions) (MAT CR12): 0.35
B4	–	–	–	–	binding result (MAT CR12): no binding
B5	–	–	–	–	fnctn (relative binding signal under isomolar conditions) (MAT CR12): 2.7; fold increase in affinity over MatRAP1 N-42 (MAT CR23): 4 fold; fold increase in affinity over the full-length d3 variant (MAT CR23): 12 fold
B6	93	73	72	–	fold improvement in affinity against the E270K single-site revertant (LRP1 CR3-5 [3]): ~30 fold; fold loss of affinity against the E270K revertant (LRP2 CR89 [4]): 2 fold; Kd (LRP1 CR3-5 [5]): 4 nM
B7	4	2	–	no binding (tested: 100 nM)	–
B8	2	40	114	–	–
B9	6	2	–	no binding (tested: 100 nM)	–
B10	2	35	–	–	–
B11	2	3	–	no binding (tested: 100 nM)	–
B12	2	94	19	–	–
B13	16	16	153	–	fold difference in affinity against the single-site E270K revertant (LRP2 CR89 [4]): ~20 fold
B14	100	5	–	no binding (tested: 100 nM)	Kd (LRP1 CR3-5 [5]): 7 nM
B15	91	5	–	no binding (tested: 100 nM)	Kd (LRP1 CR3-5 [5]): 9 nM
B16	–	100	8	–	Kd (LRP1 CR3-5 [3]): 142 nM; Kd (LRP1 CR3-5 [5]): 114 nM
B17	90	2	–	no binding (tested: 100 nM)	Kd (LRP1 CR3-5 [5]): 28 nM
B18	4	2	–	no binding (tested: 100 nM)	–
B19	2	11	–	no binding (tested: 100 nM)	–
B20	2	88	25	–	–
